Assay results: PMC10653854

Key:
[1] = biological target: Zika virus (ZIKV) soluble E ectodomain (sE) (Zika virus); experiment: SEC-MALS
[2] = biological target: Zika virus (ZIKV) soluble E ectodomain (sE) (Zika virus); experiment: SEC-MALS; pH 8.0; isolated proteins sampled individually; Superdex 200

Zika virus (ZIKV) soluble E ectodomain (sE) (domain or fragment)
stoichiometry N [1]: 2
stoichiometry N [2]: 2
